We go through 16 sequences from the Immune Epitope Database (IEDB).

Targets include HLA-B*57:01; HLA-B*53:01; HLA-A*02:01; HLA-B*35:01; HLA-B*44:03.
Assay in all cases: IEDB peptide-MHC binding, purified MHC/competitive/radioactivity; ≥ and ≤ were set here for values at or beyond the usual limits of such assays
Holding throughout (conditions): source organism: Bordetella pertussis

One may read the IC50 as the concentration that gives 50% inhibition.

LSSPSAITV: the IC50 with HLA-B*57:01 is at least 70.4 µM.

For the sequence DAGHEHDTW, the IC50 with HLA-B*57:01 is 32.9 µM.

In the case of YFEPGPTTD, in the test with HLA-B*53:01, the IC50 was 69.9 µM.

For LLHHILPIL, in the test with HLA-A*02:01, the IC50 came to 1470 nM.

Consider RGFAQRQQL, for which, in the test with HLA-B*57:01, the concentration for half-maximal inhibition (IC50) was found to be 54.3 µM.

Take EATEGDATL: the IC50 with HLA-B*53:01 was found to be 46.1 µM; with HLA-B*35:01, 69.9 µM.

Consider TSPYDGKYW, for which, in the test with HLA-B*57:01, the IC50 is at least 70.4 µM.

Consider CPSSLGNGV, for which the IC50 in the test with HLA-B*53:01 came to 26.4 µM.

As to QADRDFVWY, the IC50 with HLA-B*53:01 was found to be 27.2 µM; with HLA-B*44:03, 37.7 µM.

In the case of RAGLSPATW, the IC50 with HLA-B*53:01 came to 27.2 µM.

For KAGKLSATG, in the test with HLA-B*57:01, the IC50 stood at 45.5 µM.

On to YTLRYLASY, for which the IC50 was 3.52 µM with HLA-B*35:01 and 0.00076 µM with HLA-B*57:01.

For LTWLAILAV, the half-inhibitory concentration (IC50) with HLA-A*02:01 turned out to be 4090 nM.

As for GVGLASTLW, the figures for the IC50 with HLA-B*53:01 and with HLA-B*57:01 were 12.6 µM and 18.8 µM, respectively.

As for KSYTLRYLA, the IC50 with HLA-B*57:01 came to 0.263 µM.

In the case of SVAPNALAW, the values for the IC50 with HLA-B*53:01 and with HLA-B*35:01 were 0.983 µM and 56.3 µM, respectively.
